Results on twelve molecules are retold here after US7527793 (RUSH UNIVERSITY MEDICAL CENTER, dated 2009).

The target of assay [1] is T1, HLA-A2.1 on T2 cells (human).
T1 construct: Peptide-receptive HLA-A2.1 on T2 cells; also called HLA-A2.1 MHC class I molecules
Description: T2 peptide binding assay with beta2-microglobulin, anti-HLA-A2.1 staining, flow cytometry; index against T2 + beta2-microglobulin only (1.0). Background: Flow cytometry measures light scatter and fluorescence of single cells or particles in a stream.
Description: T2 cells were washed and resuspended in serum-free AIM-V™ (Gibco-Life Technologies, Rockville, Md.) at a final concentration of 1 ×10^6 cells/ml and transferred into a 24-well tissue culture plate. […] After incubation, cells were washed once with PBS containing 3% FCS, and stained with mouse anti-HLA-A2.1 monoclonal antibody for 15 minutes at 4° C. After washing, the cells were incubated with goat anti-mouse IgG (F(ab')_2)-FITC for 15 minutes at 4° C. The cells were washed once, and fluorescence was measured on a FACSort™ flow cytometer (Becton Dickson, San Jose, Calif.). The fluorescence index was calculated as follows: (mean channel fluorescence of sample–mean channel fluorescence of unstained control cells)/mean channel fluorescence of unstained control cells.

Assay [2] addresses T1, HLA-A2.1 on T2 cells. The experiment in a line: peptide binding to HLA-A2.1+ T2 cells, complex stability; no Brefeldin A (T2 alone 215).
Assay [3] concerns the target T1, HLA-A2.1 on T2 cells. The experiment in a line: peptide binding to HLA-A2.1+ T2 cells, complex stability; Brefeldin A 0 hr (T2 alone 226).
In assay [4] the target is T1, HLA-A2.1 on T2 cells. Description: peptide binding to HLA-A2.1+ T2 cells, complex stability; Brefeldin A 2 hr (T2 alone 200).
Assay [5] concerns the target T1, HLA-A2.1 on T2 cells. Description: peptide binding to HLA-A2.1+ T2 cells, complex stability; Brefeldin A 4 hr (T2 alone 187).
The target in assay [6] is T1, HLA-A2.1 on T2 cells. The experiment in a line: peptide binding to HLA-A2.1+ T2 cells, complex stability; Brefeldin A 6 hr (T2 alone 157).
The target of assay [7] is T1, HLA-A2.1 on T2 cells. The experiment in a line: peptide binding to HLA-A2.1+ T2 cells, complex stability; Brefeldin A overnight (T2 alone 255).

Consider ALLALCLCL (also called CD33269-277) [CD33 peptide ALLALCLCL (residues 269-277, SEQ ID NO: 8)], for which the “Fluorescence Index” value with HLA-A2.1 on T2 cells [1] came out at 1.04.

B1: CD33 peptide TIQLNVTYV (residues 226-234, SEQ ID NO: 9) (peptide)
peptide: TIQLNVTYV
notes: Native CD33 nonamer, extracellular domain; also called CD33226-234
Regarding B1, the “binding score (HLA-A2.1 on T2 cells)” value is 175 with HLA-A2.1 on T2 cells [2]; 218 with HLA-A2.1 on T2 cells [3]; 173 with HLA-A2.1 on T2 cells [4]; 180 in the assay with HLA-A2.1 on T2 cells [5]; 159 in the assay with HLA-A2.1 on T2 cells [6]; 404 in the assay with HLA-A2.1 on T2 cells [7]. In the assay with HLA-A2.1 on T2 cells [1], the “Fluorescence Index” value stood at 0.99.
With YIISGDSPV (Modified CD33 peptide) [YIISGDSPV (SEQ ID NO: 3)], the “binding score (HLA-A2.1 on T2 cells)” value in the assay with HLA-A2.1 on T2 cells [2] amounted to 547; with HLA-A2.1 on T2 cells [3], 641; with HLA-A2.1 on T2 cells [4], 588; in the assay with HLA-A2.1 on T2 cells [5], 380; with HLA-A2.1 on T2 cells [6], 216; with HLA-A2.1 on T2 cells [7], 248.
For YIGSGDSPV (Modified CD33 peptide) [YIGSGDSPV (SEQ ID NO: 10)], the “binding score (HLA-A2.1 on T2 cells)” value with HLA-A2.1 on T2 cells [2] was 515; in the assay with HLA-A2.1 on T2 cells [3], 687; with HLA-A2.1 on T2 cells [5], 167; with HLA-A2.1 on T2 cells [6] it was 151.
For YIISGDSPL (Modified CD33 peptide) [YIISGDSPL (SEQ ID NO: 15)], the “binding score (HLA-A2.1 on T2 cells)” value was found to be 428 in the assay with HLA-A2.1 on T2 cells [2]; 426 with HLA-A2.1 on T2 cells [3]; 334 in the assay with HLA-A2.1 on T2 cells [4]; 217 with HLA-A2.1 on T2 cells [5]; 168 in the assay with HLA-A2.1 on T2 cells [6]; 157 with HLA-A2.1 on T2 cells [7].
With YIIIGDSPV (Modified CD33 peptide) [YIIIGDSPV (SEQ ID NO: 11)], the “binding score (HLA-A2.1 on T2 cells)” value with HLA-A2.1 on T2 cells [2] came out at 263; in the assay with HLA-A2.1 on T2 cells [3], 301; in the assay with HLA-A2.1 on T2 cells [4], 257; with HLA-A2.1 on T2 cells [5], 208; with HLA-A2.1 on T2 cells [6] it was 172; in the assay with HLA-A2.1 on T2 cells [7] it was 325.
For the molecule YIILGDSPV (Modified CD33 peptide) [YIILGDSPV (SEQ ID NO: 12)], the “binding score (HLA-A2.1 on T2 cells)” value with HLA-A2.1 on T2 cells [2] is 465; with HLA-A2.1 on T2 cells [3] it was 488; in the assay with HLA-A2.1 on T2 cells [4], 315; in the assay with HLA-A2.1 on T2 cells [5], 205; with HLA-A2.1 on T2 cells [6], 173; with HLA-A2.1 on T2 cells [7], 323.
On to YIISGISPV (Modified CD33 peptide) [YIISGISPV (SEQ ID NO: 6)], for which the “binding score (HLA-A2.1 on T2 cells)” value was 591 with HLA-A2.1 on T2 cells [2]; 840 in the assay with HLA-A2.1 on T2 cells [3]; 929 with HLA-A2.1 on T2 cells [4]; 839 in the assay with HLA-A2.1 on T2 cells [5]; 680 with HLA-A2.1 on T2 cells [6]; 593 in the assay with HLA-A2.1 on T2 cells [7].
For YLISGDSPV (Modified CD33 peptide) [YLISGDSPV (SEQ ID NO: 7)], the “binding score (HLA-A2.1 on T2 cells)” value with HLA-A2.1 on T2 cells [2] turned out to be 701; in the assay with HLA-A2.1 on T2 cells [3] it was 728; in the assay with HLA-A2.1 on T2 cells [4] it was 810; with HLA-A2.1 on T2 cells [5] it was 745; with HLA-A2.1 on T2 cells [6] it was 594; with HLA-A2.1 on T2 cells [7], 479.
Turning to ALISGDSPV (Modified CD33 peptide) [ALISGDSPV (SEQ ID NO: 16)], the “binding score (HLA-A2.1 on T2 cells)” value is 603 with HLA-A2.1 on T2 cells [2]; 677 in the assay with HLA-A2.1 on T2 cells [3]; 882 with HLA-A2.1 on T2 cells [4]; 692 in the assay with HLA-A2.1 on T2 cells [5]; 609 with HLA-A2.1 on T2 cells [6]; 366 with HLA-A2.1 on T2 cells [7].
Regarding YIISGDLPV (Modified CD33 peptide) [YIISGDLPV (SEQ ID NO: 13)], the “binding score (HLA-A2.1 on T2 cells)” value worked out at 619 in the assay with HLA-A2.1 on T2 cells [2]; 724 with HLA-A2.1 on T2 cells [3]; 524 with HLA-A2.1 on T2 cells [4]; 307 with HLA-A2.1 on T2 cells [5]; 203 in the assay with HLA-A2.1 on T2 cells [6]; 296 with HLA-A2.1 on T2 cells [7].
As for YIISGDSWV (Modified CD33 peptide) [YIISGDSWV (SEQ ID NO: 14)], the “binding score (HLA-A2.1 on T2 cells)” value with HLA-A2.1 on T2 cells [2] worked out at 209; in the assay with HLA-A2.1 on T2 cells [3], 247; with HLA-A2.1 on T2 cells [4] it was 247; with HLA-A2.1 on T2 cells [5] it was 208; with HLA-A2.1 on T2 cells [6], 173; with HLA-A2.1 on T2 cells [7], 298.
